IC50 data for three substances are collected here from paper PMC13208732.

Assay [1] concerns the target human vascular endothelial growth factor A, isoform VEGFA165 (human) (UniProt P15692). In words: ELISA; competition with NRP1, no heparin. A general note: ELISA stands for enzyme-linked immunosorbent assay.
The target is the same in assay [2]. The assay can be described thus: ELISA; competition with VEGFR1, no heparin.
Assay [3] concerns the target human vascular endothelial growth factor A, isoform VEGFA165 (Homo sapiens). In words: ELISA; competition with biotinylated NRP1, no heparin. To be noted: Fc fusion.
Assay [4] has the same target. The assay can be described thus: ELISA; competition with biotinylated VEGFR1, no heparin. The conditions noted are these: Fc fusion.

Chain of human vascular endothelial growth factor A, isoform VEGFA165 (human) (P15692 other isoform, or with tags, fused parts or gaps): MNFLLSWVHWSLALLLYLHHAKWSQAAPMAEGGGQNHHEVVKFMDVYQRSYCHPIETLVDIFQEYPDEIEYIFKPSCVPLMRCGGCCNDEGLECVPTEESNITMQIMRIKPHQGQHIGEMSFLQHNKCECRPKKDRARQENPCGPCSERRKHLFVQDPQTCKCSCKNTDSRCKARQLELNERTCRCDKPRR
Chain of human vascular endothelial growth factor A, isoform VEGFA165 (Homo sapiens) (P15692 other isoform, or with tags, fused parts or gaps): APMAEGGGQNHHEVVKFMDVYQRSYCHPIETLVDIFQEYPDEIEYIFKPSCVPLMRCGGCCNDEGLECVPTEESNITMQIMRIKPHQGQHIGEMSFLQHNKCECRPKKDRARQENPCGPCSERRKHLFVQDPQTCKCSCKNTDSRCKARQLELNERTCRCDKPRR
Chain of VEGFR1 domains 1 to 6 fused to a C-terminal Fc, biotinylated (P17948 27-654): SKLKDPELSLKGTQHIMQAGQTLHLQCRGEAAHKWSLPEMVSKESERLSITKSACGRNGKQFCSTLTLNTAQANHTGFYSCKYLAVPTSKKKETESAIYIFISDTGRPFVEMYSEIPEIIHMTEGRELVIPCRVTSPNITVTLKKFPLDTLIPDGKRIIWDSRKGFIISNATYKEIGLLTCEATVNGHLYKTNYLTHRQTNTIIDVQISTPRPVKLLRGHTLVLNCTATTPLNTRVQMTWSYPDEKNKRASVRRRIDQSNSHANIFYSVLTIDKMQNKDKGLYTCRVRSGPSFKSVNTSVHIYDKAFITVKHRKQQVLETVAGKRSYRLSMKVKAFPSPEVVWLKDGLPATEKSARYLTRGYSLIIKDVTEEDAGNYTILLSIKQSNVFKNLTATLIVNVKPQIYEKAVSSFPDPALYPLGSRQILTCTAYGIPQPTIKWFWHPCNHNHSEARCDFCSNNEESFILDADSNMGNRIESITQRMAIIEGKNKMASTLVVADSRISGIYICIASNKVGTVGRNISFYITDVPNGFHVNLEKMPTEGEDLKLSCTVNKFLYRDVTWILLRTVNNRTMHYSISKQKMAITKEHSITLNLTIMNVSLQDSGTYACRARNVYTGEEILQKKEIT

One may read the IC50 as the point on the concentration scale where inhibition reaches its midpoint. Read a high IC50 as weaker potency in that assay. As to G6-31, the IC50 stood at 1.9 nM in assay [1] and 58.2 nM in assay [2].

In turn, “NRP1 receptor domains α1α2β1β2 fused to a C-terminal Fc, biotinylated (from UniProt O14786 22-583)” gave a half-maximal inhibitory concentration (IC50) in assay [3] of 52.8 nM.

With “VEGFR1 domains 1 to 6 fused to a C-terminal Fc, biotinylated (from UniProt P17948 27-654)”, the IC50 in assay [4] is 16.3 nM.
